Laboratory results from patent publication US20220073604A1 (ARGENX BVBA, published 2022).
Where a chain is given by its changes, count along the chain named. Each block holds one binder with its values, some of them ahead of it.

Tests used:
human IL-6 = human IL-6 (human, UniProt P05231 30-212); assay: cell-based or functional assay
cynomolgus monkey IL-6 [1] = biological target: T1, cynomolgus monkey IL-6 (cynomolgus monkey, UniProt P79341 28-212, limits assumed); assay: SPR; periplasmic fraction; against parental 29B11
T1 construct: also called HIS-cyIL-6

[2] = biological target: T2, bacterially produced human IL-6 (human, UniProt P05231 30-212); assay: SPR; periplasmic fraction; against parental 29B11
T2 construct: also called bactIL-6; prokaryotic IL-6

[3] = biological target: T3, eukaryotically produced human IL-6 (human, UniProt P05231 30-212); assay: SPR; periplasmic fraction; against parental 29B11
T3 construct: also called eukIL-6; Euk IL-6

cynomolgus monkey IL-6 [4] = biological target: T1, cynomolgus monkey IL-6; assay: SPR; periplasmic fraction
[5] = biological target: T2, bacterially produced human IL-6; assay: SPR; periplasmic fraction
[6] = biological target: T3, eukaryotically produced human IL-6; assay: SPR; periplasmic fraction
[7] = biological target: T4, human IL-6 (as added in the B9 and 7TD1 bioassays) (human, UniProt P05231 30-212); assay: cell-based or functional assay
[8] = biological target: T4, human IL-6 (as added in the B9 and 7TD1 …); assay: cell-based or functional assay; remark: listed apart in the source
[9] = biological target: T4, human IL-6 (as added in the B9 and 7TD1 …); assay: cell-based or functional assay; remark: listed apart in the source
[10] = biological target: T5, eukaryotically produced human IL-6 (human, UniProt P05231 30-212); assay: SPR (Biacore), purified Fab
T5 construct: Immobilised on the Biacore chip; also called Euk IL-6; EUK IL-6 (3-1)

[11] = biological target: T6, bacterially produced human IL-6 (human, UniProt P05231 30-212); assay: SPR (Biacore), purified Fab
T6 construct: Immobilised on the Biacore chip; also called BACT IL-6 (2-1); bactIL-6

B1: 111B1 (antibody, V domains shown)
VH: EVQLLESGGGLVQPGGSLRLSCAASGFTFSSYAMYWVRQPPGKGLEWVSRISAGGGSTYYGDSVKGRFTISRDNSKNTLYLQMNSLRAEDTAVYYCANRAGWGMGDYWGQGTLVTVSS
VL: QTVVTQEPSFSVSPGGTVTLTCGLSSGSVTASNYPGWFQQTPGQAPRALIYSTNDRHSGVPDRFSGSILGNKAALTITGAQAEDEADYYCALDIGDITEFGGGTQLTVL
- IC50, growth of IL-6-dependent 7TD1 cells with 75 pg/ml human IL-6 (human IL-6): < 1 pM

- fold improvement KD (cynomolgus monkey IL-6 [1]): 9.22 fold
- fold improvement ka (cynomolgus monkey IL-6 [1]): 4.14 fold
- fold improvement kd (cynomolgus monkey IL-6 [1]): 2.22 fold
- fold improvement KD [2]: 3.82 fold
- fold improvement ka [2]: 1.95 fold
- fold improvement kd [2]: 1.95 fold
- fold improvement KD [3]: 3.46 fold
- fold improvement ka [3]: 2.21 fold
- fold improvement kd [3]: 1.56 fold
- Ka (cynomolgus monkey IL-6 [4]): 1.39e+09 M⁻¹
- Kd (cynomolgus monkey IL-6 [4]): 717 pM
- koff (cynomolgus monkey IL-6 [4]): 0.000336 s⁻¹
- kon (cynomolgus monkey IL-6 [4]): 468000 M⁻¹ s⁻¹
- Ka [5]: 7.28e+09 M⁻¹
- Kd [5]: 137 pM
- koff [5]: 6.72e-05 s⁻¹
- kon [5]: 489000 M⁻¹ s⁻¹
- Ka [6]: 6.34e+09 M⁻¹
- Kd [6]: 158 pM
- koff [6]: 6.53e-05 s⁻¹
- kon [6]: 414000 M⁻¹ s⁻¹
B2: Fab 55E2 (Fab, V domains shown)
VH: EVQLVESGGGLVQPGGSLRLSCAASGFTFSSYAMSWVRQAPGKGLEWVSRISSGGISTYYADSVKGRFTISRDNAKNTLYLQMNSLKPEDTAVYYCVRYAWGVQWAFDFWGQGTQVTVSS
VL: AQSVLTQPPSVSGSPGKTVTISCAGTSSDVGYGNYVSWYQQLPGMAPKLLIYDVNKRASGIADRFSGSKFANTASLTISGLQSEDEADYYCASYKRGDNAVFGGGTKLTVLG
notes: VL-shuffled Fab of 29B11, periplasmic fraction; also called 55E2b

- fold improvement KD (cynomolgus monkey IL-6 [1]): 4.29 fold
- fold improvement ka (cynomolgus monkey IL-6 [1]): 7.53 fold
- fold improvement kd (cynomolgus monkey IL-6 [1]): 0.57 fold
- fold improvement KD [2]: 1.86 fold
- fold improvement ka [2]: 4.46 fold
- fold improvement kd [2]: 0.42 fold
- fold improvement KD [3]: 1.94 fold
- fold improvement ka [3]: 4.54 fold
- fold improvement kd [3]: 0.43 fold
- Ka (cynomolgus monkey IL-6 [4]): 6.48e+08 M⁻¹
- Kd (cynomolgus monkey IL-6 [4]): 1540 pM
- koff (cynomolgus monkey IL-6 [4]): 0.00131 s⁻¹
- kon (cynomolgus monkey IL-6 [4]): 851000 M⁻¹ s⁻¹
- Ka [5]: 3.56e+09 M⁻¹
- Kd [5]: 281 pM
- koff [5]: 0.000315 s⁻¹
- kon [5]: 1.12e+06 M⁻¹ s⁻¹
- Ka [6]: 3.54e+09 M⁻¹
- Kd [6]: 282 pM
- koff [6]: 0.00024 s⁻¹
- kon [6]: 849000 M⁻¹ s⁻¹
B3: Fab 47C2 (Fab, V domains shown)
VH: B2 VH
VL: LSYDLTQPPSVSGSPGKTVTISCAGTSSDVGYGNYVSWYQQLPGMAPKILIYDVNKRASGIADRFSGSKSGNTASLTISGLQSEDEADYYCASYRRGETIVFGGGTHLTVLG
notes: VL-shuffled Fab of 29B11, periplasmic fraction; also called 47C2 (R4)

- IC50, proliferation of IL-6-dependent B9 cells with 10 pg/ml human IL-6 (human IL-6): < 0.1 pM
B4: 129D3 antibody (antibody, V domains shown)
VH: EVQLQESGPGLVKPSQTLSLTCTVSGGSITSRYYAWSWIRQPPGKGLEWIGVIDYDGDTYYSPSLKSRVSISWDTSKNQFSLKLSSVTPADTAVYYCARDPDVVTGFHYDYWGQGTMVTVSS
VL: QSALTQPPSVSGTPGQSVTISCAGANNDIGTYAYVSWYQQLPGTAPKLMIYKVTTRASGIPDRFSGSKSGNTASLTISGLQAEDEADYYCASYRNFNNAVFGTGTKLTVL
- IC50, growth of IL-6-dependent 7TD1 cells with 75 pg/ml human IL-6 (human IL-6): < 1 pM

B5: 133H2 (germlined variant of 68F2) (antibody, V domains shown)
VH: B4 VH with S31T, V69T, S70T, M117T
VL: B4 VL with S9L, T13S, S17T, L41P, T103S
- IC50, 7TD1 cells (batch A1.8) [7]: 0.35 pM
- IC50, 7TD1 cells (batch A9.11) [7]: 0.47 pM
- Potency relative to 68F2, 7TD1 cells (batch A1.8) [7]: 1.94
- Potency relative to 68F2, 7TD1 cells (batch A9.11) [7]: 1.44
- IC 50, B9 cell proliferation [8]: 0.37 pM
- Rel. potency, B9 cells [8]: 2.2

B6: 133H2 (antibody, V domains shown)
VH: B4 VH with S31T, V69T, S70T, M117T
VL: B4 VL with S9L, T13S, S17T, L41P, T103S
- IC50, growth of IL-6-dependent 7TD1 cells with 75 pg/ml human IL-6 (human IL-6): < 1 pM

B7: 132E7 (germlined variant of 68F2) (antibody, V domains shown)
VH: B4 VH with S70T, M117T
VL: B4 VL with A3V, S9R, T13A, S17T, M49L, I60V, T72S, S78T, T103G
- IC50, 7TD1 cells [7]: 0.37 pM
- Potency relative to 68F2, 7TD1 cells [7]: 1.85
- IC 50, B9 cell proliferation [8]: 0.38 pM
- Rel. potency, B9 cells [8]: 2.1

B8: 133E5 (germlined variant of 68F2) (antibody, V domains shown)
VH: B4 VH with E1Q, S70T, A90E, M117Q
VL: B4 VL with T13S, S17T, T103R
- IC50, 7TD1 cells [7]: 0.1 pM
- Potency relative to 68F2, 7TD1 cells [7]: 6.69
- IC 50, B9 cell proliferation [8]: 0.19 pM
- Rel. potency, B9 cells [8]: 4.3

B9: 133A9 (antibody, V domains shown)
VH: B4 VH with S31T, D56E, S70T, W73V, P89A, A90E
VL: B4 VL with S9L, T13S, S17T, L41P, K68I, A82S
- IC50, growth of IL-6-dependent 7TD1 cells with 75 pg/ml human IL-6 (human IL-6): < 1 pM

B10: 68F2 antibody (antibody, V domains shown)
VH: B4 VH with S31T, I50M, V69T, K83Q, A90E, M117Q
VL: QSALTQPPLVSGTPGQTVTISCAGANNDIGTYAYVSWYQQLPGTAPKLLIYKVTTRASGIPSRFSGSKSGNTASLTISGLQSEDEADYYCASYRNFNNAVFGRGTHLTVLG
- IC50, growth of IL-6-dependent 7TD1 cells with 75 pg/ml human IL-6 (human IL-6): < 1 pM

B11: 68F2 (parental antibody), full-length IgG1 (antibody, V domains shown)
VH: B4 VH with S31T, I50M, V69T, K83Q, A90E, M117Q
VL: B10 VL
- IC50, 7TD1 proliferation assay, exp 7.07 (batch 24.06) [9]: 1.36 pM
- IC50, 7TD1 proliferation assay, exp 7.07 (batch #12.9) [9]: 1.46 pM
- IC50, 7TD1 proliferation assay, exp 22.06 (batch #12.9) [9]: 0.803 pM
- IC50, 7TD1 proliferation assay, exp 29.06 (December batch) [9]: 0.645 pM
- IC50, 7TD1 proliferation assay, exp 29.06 (Large batch) [9]: 1.31 pM
- IC50, 7TD1 proliferation assay, exp 29.06 (batch 24.06) [9]: 0.56 pM
- IC50, 7TD1 proliferation assay, exp 29.06 (batch #12.9) [9]: 0.521 pM
- Rel. Potency, 7TD1, exp 29.06 (batch 24.06) [9]: 1
- IC50, 7TD1 cells (batch A8.10) [7]: 0.67 pM
- Potency relative to 68F2, 7TD1 cells (batch A8.10) [7]: 1
- IC 50, B9 cell proliferation (batch 12.9) [8]: 0.98 pM
- IC 50, B9 cell proliferation (batch A8.10) [8]: 0.62 pM
- average IC50 of the two 68F2 batches, B9 cells [8]: 0.8 pM

B12: 133E5 (antibody, V domains shown)
VH: B4 VH with E1Q, S70T, A90E, M117Q
VL: B4 VL with T13S, S17T, T103R
- IC50, growth of IL-6-dependent 7TD1 cells with 75 pg/ml human IL-6 (human IL-6): < 1 pM

- Kd [10]: 410 pM
- koff [10]: 0.0001 s⁻¹
- kon [10]: 250000 M⁻¹ s⁻¹
- Kd [11]: 500 pM
- koff [11]: 0.0001 s⁻¹
- kon [11]: 210000 M⁻¹ s⁻¹
B13: 24D10 (Fab, V domains shown)
VH: QLQVVESGGGLVQPGGSLRLSCAASGFTFSSYAMSWVRQAPGKGPEWVSRISSGGGSTSYADSVKGRFTISRDNAKNTLYLQMNSLKPEDTAVYYCANRAGWGMGDYWGQGTQVTVSS
VL: QTVVTQEPSLSVSPGGTVTLTCGLSSGSVTASNYPGWFQQTPGQAPRALIYSTNDRHSGVPSRFSGSISGNKAALTITGAQPEDEADYYCALDIGDITEFGGGTHLTVLG
notes: Purified Fab

B14: 61H7 antibody (antibody, V domains shown)
VH: B1 VH with L5V, A33R, R50A, S75A, L79V, R87K, A88P, L113Q
VL: B13 VL
- IC50, growth of IL-6-dependent 7TD1 cells with 75 pg/ml human IL-6 (human IL-6): < 1 pM

B15: 104C1 (antibody, V domains shown)
VH: B1 VH with P40A, S75A, L79V, R87K, A88P, L113Q
VL: B13 VL with L10F, F38Y, S62D, P82A, E83D, A86S, H105K
- IC50, growth of IL-6-dependent 7TD1 cells with 75 pg/ml human IL-6 (human IL-6): < 1 pM

- Kd [10]: 450 pM
- koff [10]: 5.5e-05 s⁻¹
- kon [10]: 120000 M⁻¹ s⁻¹
- Kd [11]: 17 pM
- koff [11]: 2e-06 s⁻¹
- kon [11]: 120000 M⁻¹ s⁻¹
B16: 61H7 (Fab, V domains shown)
VH: B1 VH with L5V, A33R, R50A, S75A, L79V, R87K, A88P, L113Q
VL: B13 VL
notes: Fab; also called Fab 61H7
